Experimental data as given in the supplement of paper PMC10567573.
± gives the standard deviation.

Experiment: protein stability index of a GFP-peptide fusion (GPS, HEK-293T) (PSI 1-6); higher = more stable
[1] = treatment: DMSO, c terminus: a fixed tail appended
[2] = treatment: MLN4924 1 uM, 8 h, c terminus: a fixed tail appended
[3] = treatment: DMSO, c terminus: native
[4] = treatment: MLN4924 1 uM, 8 h, c terminus: native
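Note: 24-mer peptide tiles fused after GFP, lentivirally expressed, FACS-sorted into six equal bins by GFP/DsRed ratio, decoded by Illumina sequencing, PSI is the read-weighted mean bin number.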

Sequence | protein stability index [1] | protein stability index [2] | protein stability index [3] | protein stability index [4]
RRCKPKKPTRRDASPESPSKKGPI [GNAS] | 5.15 ± 0.21 | 5.23 ± 0.22 | – | –
RRNSEFEIFVDCDINREQLNDIFH [TPH1] | 2.55 ± 0.096 | 2.73 ± 0.27 | – | –
RSDLYSSGRDRVGRQERGLPPSME [RBMX] | 4.41 ± 0.091 | 4.51 ± 0.23 | – | –
RSHEGETAYIRVKVDGPRSPSYGR [SRSF1] | 3.83 ± 0.19 | 3.73 ± 0.32 | – | –
RSIFGNAVSRELIEIGCEDKTLAF [MLH1] | – | 2.97 ± 0.41 | – | –
RSLSACNKRVGMYLEGFDPFNQST [DLC1] | 2.85 ± 0.39 | 2.81 ± 0.5 | – | –
RSLSPSLSSVDMRMTSSPSSIPRR [RAD54B] | 4.66 ± 0.15 | 4.69 ± 0.18 | – | –
RSSHLVIHERTHERERLYPFSECG [ZNF263] | 2.93 ± 0.21 | 3.25 ± 0.3 | – | –
RSSVELELERCRQQAGLLVTGEKE [PPEF2] | 4.74 ± 0.57 | 4.86 ± 0.34 | – | –
RTAFLWRGNVVLRAQMIRNEYRKL [TRIM43] | 2.66 ± 0.29 | 2.51 ± 0.29 | – | –
RTILLSVISLLNEPNTFSPANVDA [CDC34] | 2.77 ± 0.41 | 2.66 ± 0.54 | – | –
RTVAVGDIVWGKIHGFPWWPARVL [PWWP2B] | 2.02 ± 0.47 | 2.17 ± 0.23 | – | –
RVEEQAILDAMAEETRQKQLLADE [TRIM35] | 5.57 ± 0.26 | 5.38 ± 0.15 | – | –
RVTSLANLISPVRNGAVRRFGQTI [NET1] | 2.55 ± 0.14 | 2.63 ± 0.33 | – | –
RVYFLKGGYETFYSEYPECCVDVK [DUSP5] | 2.09 ± 0.23 | 2.46 ± 0.55 | – | –
RWGYVAMKFAQVFGCFFYVYYIFE [SOAT1] | 3.17 ± 0.22 | 3.18 ± 0.39 | – | –
RYCQCNPDDSTSEDGIHTLTCALM [PSD2] | 3.96 ± 0.32 | 4.09 ± 0.18 | – | –
SAENGLEKSGFSQHQNKSPPKVKA [DLC1] | 5.14 ± 0.44 | 5.1 ± 0.45 | – | –
SAGDADPENGEIKPASKPAGSSHT [ELOA2] | 5.42 ± 0.42 | 5.47 ± 0.44 | – | –
SAVSTPSPVTRTRSLSACNKRVGM [DLC1] | 4.36 ± 0.19 | 4.38 ± 0.16 | – | –
SDAIRVVNAVLTQIDQIKRHSNVV [TRIP13] | 2.33 ± 0.2 | 2.35 ± 0.21 | – | –
SDDDEEEEENIGCEEKAKKNANRP [ACBD3] | 5.42 ± 0.28 | 5.49 ± 0.38 | – | –
SDKEIVAEAERLDVKAMGPLVLTE [EIF5] | 5.08 ± 0.054 | 5.23 ± 0.31 | – | –

Sequence | protein stability index [1] | protein stability index [2] | protein stability index [3] | protein stability index [4]
SDLKDDDAVPPGMESLISAPLVKT [CDC25B] | 5.21 ± 0.28 | 5.17 ± 0.43 | – | –
SELRRTMQALEIELQSQLSMKASL [KRT17] | 2.46 ± 0.21 | 2.23 ± 0.2 | – | –
SFFFPPVNLPISFFRKLLDCCQVS [NLN] | 2.23 ± 0.77 | 2.25 ± 0.5 | – | –
SFPLWYEEALKDEEERAQDRIATT [MAGEA10] | 4.71 ± 0.19 | 4.5 ± 0.27 | – | –
SGDFRSSTEDMERALSEYLAVFAR [P3H4] | 3.44 ± 0.23 | 4.11 ± 0.17 | – | –
SGEDPTAAAPVAEVPTAAGALTPT [CLPTM1] | 5.42 ± 0.16 | 5.47 ± 0.36 | – | –
SGFVGSGGWFCEGSFNGSEKETMQ [KRT36] | 3.87 ± 0.36 | 3.65 ± 0.19 | – | –
SGGHERSRDRRRSSDRSRDSSHER [BTBD10] | 5.48 ± 0.18 | 5.59 ± 0.19 | – | –
SGPARVIAIVSVMVILISIVIFCL [KCNA1] | 2.18 ± 0.14 | 2.22 ± 0.32 | – | –
SIGALISKAHLEKVRSYVKRALAE [ALDH8A1] | 2.42 ± 0.51 | 2.6 ± 1.1 | – | –
SILNAKAPALPPGGTDPHGYHQVP [FOXJ1] | 3.6 ± 0.2 | 3.66 ± 0.14 | – | –
SIPRHFALSGKYSREFFNRRGELR [SRPK2] | 2.74 ± 0.46 | 2.8 ± 0.46 | – | –
SISLMYGGSKRKSSFFSSPPYFED [SLA] | 2.37 ± 0.38 | 2.59 ± 0.2 | – | –
SKRMGPMTVVRMDASVQPGPFRTL [RHOBTB1] | 2.76 ± 0.14 | 2.91 ± 0.48 | – | –
SLARLQQLLFVIFLLLYLFTLGTN [OR10K2] | 2.78 ± 0.51 | 2.13 ± 0.53 | – | –
SLEESVGKPLYLIFRNLCQMQEDN [INTS3] | 2.45 ± 0.45 | 2.46 ± 0.22 | – | –
SLEHVQLFDLMRRMLEFDPAQRIT [CLK3] | 2.31 ± 0.29 | 2.07 ± 0.36 | – | –
SLGLDHCHSFISGTAPLNQETAEF [ACSBG2] | 4.18 ± 0.21 | 4.06 ± 0.16 | – | –
SLISGCPNIQEAVEGAMHIQECVP [CRYL1] | 3.87 ± 0.29 | 3.98 ± 0.18 | – | –
SLKFFLNKPMLADVVFEIQGTTVP [RHOBTB3] | 2.68 ± 0.39 | 2.29 ± 0.37 | – | –
SLLDVAEPGGPGWLPESDCETVTC [SMAD6] | 4.63 ± 0.27 | 4.74 ± 0.18 | – | –
SLSELLSQLDSGVSQAVEGPEELS [RIPK4] | 4.27 ± 0.29 | 4.1 ± 0.4 | – | –
SLSHINAYACLVCGKYFQGRGLKS [USP39] | 2.14 ± 0.39 | 2.07 ± 0.42 | – | –

Sequence | protein stability index [1] | protein stability index [2] | protein stability index [3] | protein stability index [4]
SLSRNNSFRRNVGRVLLANSTQAD [FBXO34] | 3.15 ± 0.24 | 3.21 ± 0.3 | – | –
SLVSLVLYNMDLSDDHIRVIVQLH [ZER1] | 2.63 ± 0.41 | 2.71 ± 0.54 | – | –
SMAKEVIAKELSKTYQETPEIDMF [ZBED1] | 4.11 ± 0.21 | 4.05 ± 0.18 | – | –
SMDNTPHTPTPFKNALEKYGPLKP [MYBL2] | 3.48 ± 0.092 | 3.7 ± 0.16 | – | –
SMEKDATLNVDRKEKCVSLPDCCH [DLC1] | 4.81 ± 0.2 | 4.92 ± 0.17 | – | –
SMRKIVATWMLEVCEEQKCEEEVF [CCND1] | 2.3 ± 0.25 | 2.47 ± 0.17 | – | –
SPADYLRFQDLVLRMLEYEPAARI [DYRK1B] | 2.56 ± 0.35 | 2.43 ± 0.33 | – | –
SPDDPESVKIIFKLPNDSRVERRF [FAF2] | 3.36 ± 0.23 | 3.46 ± 0.24 | – | –
SPELGRPHDRSQGDWAPPPEGGME [ZNF263] | 5.18 ± 0.21 | 5.41 ± 0.25 | – | –
SPKRGTAPGDLSATEPATCFPSTQ [FBF1] | 4.87 ± 0.18 | 4.92 ± 0.24 | – | –
SPQIQRSAHRALYRRHVLGIVLQG [TMEM175] | 2.3 ± 0.19 | 2.42 ± 0.36 | – | –
SPRDEYKPLDLSDSTLSYTETEAT [SMAD6] | 5.45 ± 0.24 | 5.41 ± 0.23 | – | –
SPTSRPPWAVDPAFAERYAPDKTS [PDLIM7] | 4.63 ± 0.21 | 4.7 ± 0.31 | – | –
SQDEPIALDKQHSRDSAAITHSTY [NOL4L] | 5.01 ± 0.22 | 5.08 ± 0.16 | – | –
SQEETSILRCWKCRKCIASSGCFM [RNF180] | 2.81 ± 0.4 | 2.89 ± 0.35 | – | –
SQPIDLSACTVALHIFQLNEDGPS [TRIP13] | 2.56 ± 0.2 | 2.51 ± 0.28 | – | –
SQSLALKEQNNLKQLEFGLKEAPV [ZNF8] | 4.7 ± 0.24 | 4.44 ± 0.16 | – | –
SQSSYLSQHRRIHSGEKPFICKEC [ZNF232] | 3.36 ± 0.33 | 3.67 ± 0.44 | – | –
SQVALKIIRNVGKYREAARLEINV [CLK3] | 2.67 ± 0.51 | 2.62 ± 0.54 | – | –
SRAESAPLPVSADDTPEVLNRALS [CDS2] | 5.36 ± 0.19 | 5.37 ± 0.21 | – | –
SRLTALTLHQRTHTEERPFKCNYC [ZNF449] | 2.73 ± 0.23 | 3.03 ± 0.4 | – | –
SRSLLTGGYNLASVSVWDLAAPSL [TLE6] | 2.38 ± 0.27 | 2.29 ± 0.14 | – | –
SRVGKQSFIITLGCNSVLIQFATP [CARM1] | 2.83 ± 0.4 | 2.97 ± 0.56 | – | –

Sequence | protein stability index [1] | protein stability index [2] | protein stability index [3] | protein stability index [4]
SSAYVKTSEKLGEWNEKVTQSDLY [TPD52L2] | 4.02 ± 0.19 | 3.98 ± 0.17 | – | –
SSMFSGSWKESSMNIIELEIPDQN [GMCL1] | 3.53 ± 0.29 | 3.67 ± 0.5 | – | –
SSRYDDYSSSRDGYGGSRDSYSSS [RBMX] | 4.37 ± 0.25 | 4.52 ± 0.19 | – | –
SSSSILRWLPEKRANPCLSSSNEH [ELOA2] | 3.4 ± 0.19 | 3.54 ± 0.25 | – | –
SSSSSSSSSSGPGHGEPDVLKDEL [TMEM40] | 5.44 ± 0.15 | 5.42 ± 0.21 | – | –
SSVSPAVSKASSRRSSFSMEEES [TFE3] | – | – | 5.44 ± 0.14 | 5.28 ± 0.17
STEKVVQETVLVEERRVVHASGDA [EPB41L3] | 5.33 ± 0.23 | 4.93 ± 0.16 | – | –
STFYPPYHSPELTTPPGHGTLDNS [NEUROD6] | 4.27 ± 0.091 | 4.21 ± 0.22 | – | –
STTDLRGTQFDYERGKGESTEDR [ZSWIM9] | – | – | 5.28 ± 0.34 | 5.43 ± 0.11
SVFKKGRRRVPVRNLGKVVHYAKV [PLEKHN1] | 2.36 ± 0.17 | 2.37 ± 0.84 | – | –
SVIEEDLEEFQLALKHYVESASSQ [NECAB1] | 3.78 ± 0.58 | 3.84 ± 0.077 | – | –
SVIKDHHTRSITSCCFDPDSQRVA [WDR88] | 3.35 ± 0.2 | 3.41 ± 0.38 | – | –
SVLLSWEIPENYNSAMPFKILYDD [PTPRD] | 1.88 ± 0.26 | 2.29 ± 0.22 | – | –
SVMYRKWKESKGKDREYTDIIRKQ [CDC34] | 3.52 ± 0.18 | 3.76 ± 0.25 | – | –
SWMCTRSGNMLGRHFFTSWASCLQ [WDFY1] | 1.86 ± 0.32 | 2.33 ± 0.22 | – | –
TCSADHLIILWKNGERESGLRSLR [WDR41] | 2.09 ± 0.25 | 2.28 ± 0.17 | – | –
TCSICRRNFSRRSSLLRHQKLHL [ZNF75A] | – | – | 3.65 ± 0.23 | 4.06 ± 0.43
TDNSIKPQELLEWELVVLGKLKWN [CCND2] | 2.65 ± 0.25 | 2.81 ± 0.33 | – | –
TEELNKEVASNTEMIQTSKTEITD [KRT15] | 5.49 ± 0.29 | 5.52 ± 0.19 | – | –
TEISFILGQEFDEVTADDRKVKST [FABP4] | 4.24 ± 0.43 | 4.43 ± 0.17 | – | –
